± gives the uncertainty stated by the source.

The values that follow come from the supplement of paper PMC12042874.

The nature of this series: amyloid nucleation score (Sup35N fusion, yeast selection) (log enrichment); library NNK2; higher = more nucleation; inactive = no reads after selection. The gist of the method:
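Psi-negative yeast expressed Sup35N fused to peptides of 20 random codons. They were induced 24 hours with 100 μM copper sulfate, grown 7 days at 30°C without adenine and uracil, and their plasmid inserts from input and output were Illumina-sequenced. The nucleation score is the DiMSum log enrichment of output over input reads, centred on the mode score of non-aggregating sequences. Sequences with under 100 input reads were excluded.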
In turn, HINMIGWEFSVGYGWQ gave an amyloid nucleation score of 4.9 ± 0.061.
Then HIVEDLRVSAFTFSIKFISE, with 3.33 ± 0.099; and HIVIGSFD, with “inactive”.
Then HIWRHDRVLLGSSNTKYMCG, with 0.759 ± 0.8; and HIYRKM, with 0.151 ± 0.2.
Regarding HLIAFLSAYFYYVMLARMYF, the amyloid nucleation score was -1.87 ± 1.1.
Then HLLPWMRVLYTYVCSNIQMF, with -0.45 ± 0.36.
Then HLNCISRGPMWLNDRMCQCP, with 1.76 ± 0.12; and HLPFMHPRPANLSHNKTSVS, with -0.766 ± 0.4.
To HLWFEDAQFAIAKFKCGGKR belongs 6.16 ± 0.086.
HMARYKIMSVLEIFHYMNRL registered an amyloid nucleation score of 3.16 ± 0.16.
To HMGLLFKWAYTYRIAWGKLR belongs -0.451 ± 0.79; to HMSRTPQAVRTSHPRVKNRI, -0.026 ± 0.26; to HMTSS, -0.495 ± 0.33.
To HNAEANNVS belongs -0.492 ± 1.1; to HNGVRRHMSNVSKILHSYF, 0.02 ± 1; to HNLQECSPVGPGTAFFCGSW, -0.243 ± 1.1.
HNLWCDISLFGHIYRGRGTM showed an amyloid nucleation score of 7.21 ± 0.08.
Then HNMPARKYINSLMTFHVRWP, with -0.321 ± 0.79; and HNNCNRFCQSIVLH, with 6.34 ± 0.078.
Regarding HNPLS, the amyloid nucleation score result was “inactive”.
In turn, HNYGNPWE came in with an amyloid nucleation score of 3 ± 0.12.
Then HNYVINESFFFLVVVYVDAG, with 7.6 ± 0.037.
The substance HQRLTRVLYWKVDIGQVCGI had an amyloid nucleation score of 4.99 ± 0.065.
Then HRFIILNIVAFE, with 0.59 ± 0.28; and HRLVLDIGDQIWSKA, with 0.35 ± 0.56.
To HRMNGFDLLMLVCKKCIDFC belongs “inactive”; to HRSMPIRYWVVTIWYGRSDS, 0.569 ± 0.41; to HRSNFVVKLAASGSFTTGCR, 0.376 ± 0.29.
As for HSGLSGTILGWLIFKVEGEE, the amyloid nucleation score worked out at 0.007 ± 0.42.
Then HSHVRLWSLRFDAHPNWHDK, with 1.15 ± 0.27; and HSICSSRNTVIFMSENFRNR, with 4.99 ± 0.057.
HSQRNP: the amyloid nucleation score result was “inactive”.
To HSRQCFTHFGYFTGLGRVRV belongs 2.18 ± 0.1; to HSRRGGFRKYSSTLARPASD, -0.799 ± 0.49.
Then HSSCIVVEAFSQGVVHNLFV, with -0.567 ± 1.1; and HSSEIL, with -0.006 ± 0.65.
Take HSVFNSMRRENLVNNNTLNG: the amyloid nucleation score entry is “inactive”.
To HSWNV belongs “inactive”; to HTFYVNKLPLPKL, 0.875 ± 0.45.
The substance HTWDLYYAIYSA displayed an amyloid nucleation score of -1.19 ± 0.36.
In turn, HVAEEVMGIVARVRVLMILS registered an amyloid nucleation score of -0.598 ± 0.45.
Then HVHGMYSGWCYDKTGQEKGM, with 0.624 ± 0.34.
Then HVLEVPPAYPTQTSGMNPNS, with -0.143 ± 0.76; and HVRGDLSRTGKWVMLRCYTR, with “inactive”; and HVRMK, with 4.79 ± 0.1.
To HVSTSLYTIGSSVSWGMFQG belongs 0.897 ± 0.47.
With HVVLNFCDTVWLMSKAP, the amyloid nucleation score was 9.03 ± 0.078.
To HVWGQLSCFARVALSDRSKM belongs 3.07 ± 0.16; to HWDQLV, -0.504 ± 0.78; to HWGSVAGDFWGFVVWSRFGR, 0.234 ± 0.34.
Then HWMAFVKRTANFDVIDWSAG, with -0.278 ± 0.39; and HWSADDNFSSLQRLFVYMGR, with 4.583 ± 0.043.
To HYGNSWY belongs 0.958 ± 0.48; to HYLAIVTWLPYRCRF, 0.935 ± 0.15.
Regarding HYQYSFARTMVMLNMDWLML, the amyloid nucleation score is 0.462 ± 0.43.
Then HYVSNEHSVRRTHHRKTKLT, with 0.753 ± 0.67.
Then HYVVFVF, with 6.37 ± 0.084; and HYWNWYVEL, with 4.582 ± 0.037.
To HYYWSALSSAFVNSMIVR belongs -1.09 ± 0.76; to IALGLNSYGK, -1.74 ± 0.78; to IALTQILLRFFGLHA, -0.305 ± 1.1.
Consider IAMIVIQYTIRHCGSAEAVG, for which the amyloid nucleation score was 2.34 ± 0.19.
Then IANYSFELFII, with 2.87 ± 0.1; and IARIRILCLL, with 0.234 ± 0.19.
Then IARRLTMGLTRMM, with 1.56 ± 0.18; and ICLVRWDMKSRVDGTSGM, with 5.194 ± 0.037.
Then ICPRRS, with 0.474 ± 0.34.
ICRGPQSSNCMEAFVQHFTK gave an amyloid nucleation score of 0.417 ± 0.42.
To ICSAPGYL belongs “inactive”; to ICSDFGPNSGYRHQWVCIGV, -0.023 ± 0.45; to ICSYSVAGCYRKYRASFSGE, “inactive”.
In turn, ICYLKTQGKWFIILPWFVMM gave an amyloid nucleation score of 0.241 ± 0.8.
IDCFIVISSMMSRVLYCGER returned an amyloid nucleation score of 0.21 ± 0.25.
Then IDFVVIKTLGMCDITYLYM, with -0.573 ± 1.1; and IDGKARDYMAGDARMNRF, with -1.45 ± 0.75.
IDLLFDFTDLMWLIYPVFLL returned an amyloid nucleation score of -1.93 ± 0.75.
To IDLSTMTAGTCISYCVYCRI belongs 5.25 ± 0.1; to IDNSTMDTCIMNRSQFTIRL, -0.412 ± 0.54; to IDQCIYDHVHNWVRRVDTRS, 0.223 ± 0.18.
Then IDRCGTLVTPDGINGRVTRV, with 0.951 ± 0.55; and IDSMGFSMKSFDFRYNTSRW, with 5.02 ± 0.092.
Then IDSVIKTEARGQGVVARTRA, with 1.33 ± 0.28.
For the substance IDSWCVTHATKIGSYWML, the amyloid nucleation score was found to be 0.12 ± 0.34.
Then IDVLYCHDSL, with 0.311 ± 0.42; and IERHIYGMSDAVLGVD, with -0.493 ± 1.1.
To IEVGRHRWALWRVAQSRLIG belongs 0.308 ± 0.25; to IFAAGYMYIFILVYLLTARG, -0.01 ± 1; to IFCAGYDNPRFINLLLLPKG, 3.05 ± 0.1.
Turning to IFCCIRFLV, the amyloid nucleation score came out at 6.549 ± 0.03.
Then IFCWRVSCEQRVFYLIESGR, with -0.388 ± 0.24.
Then IFGLCCFCGSYQRY, with 8.152 ± 0.033; and IFKCRRVI, with 4.614 ± 0.041; and IFLAWMVPAGFWR, with 0.56 ± 0.54.
Turning to IFLCFGYYNLEVLCFDTRCQ, the amyloid nucleation score came to 3.1 ± 0.064.
To IFLDHYS belongs -0.026 ± 0.35.
Then IFLKWLYKSFDYNI, with 0.973 ± 0.23.
Then IFNLSRAQTVINL, with 5.34 ± 0.063; and IFRIWRTRGRRSRFVSIEIG, with -0.802 ± 0.41.
Take IFRNWGYSTFSHE: the amyloid nucleation score entry was “inactive”.
Then IFRSSTLIDLKDLGLTSH, with 1.27 ± 0.096; and IFRVLTGVIK, with -0.277 ± 0.26; and IFSIHVVAQTINE, with 4.64 ± 0.085.
To IFSNIFSFV belongs 3.55 ± 0.13.
To IFSWTLEV belongs 0.249 ± 0.64; to IGAMN, 0.586 ± 0.44; to IGCNVESVYAGLALQMT, 2.7 ± 0.18.
Turning to IGFSPLCQYHYCAYGCY, the amyloid nucleation score is 7.695 ± 0.032.
To IGIIYFIARFAVVPRSGIRQ belongs -0.114 ± 1; to IGIMQMIYFVD, 5.79 ± 0.068; to IGTEMLTVYIFTYSSA, 0.416 ± 0.74.
To IGVVILNHADSSLVTL belongs 3.31 ± 0.091.
To IHNKWNKMYDRPYLIKIVAS belongs -0.37 ± 0.36.
For the substance IIENDICHWSDICMEDLMDW, the amyloid nucleation score came to 0.186 ± 0.54.
Regarding IIGDTICVVIIKWNLKNYRS, the amyloid nucleation score was 3.67 ± 0.075.
To IIILFQVQCHVVRLSRVHKC belongs -0.658 ± 0.49.
Take IILIYVCRRPCLISQDNAFF: the amyloid nucleation score entry is “inactive”.
The substance IIMNVVHEDSLL came in with an amyloid nucleation score of 0.019 ± 0.5.
To IINWPQLFKVASWTPSKTPP belongs -0.07 ± 0.76.
Then IIRMNLAGDGVESWGWDRLS, with 1.12 ± 0.45.
IISSGSIDCVYWTWFLRY: the amyloid nucleation score was -0.396 ± 0.55.
To IIVSATSEGSLRRIRMKMGW belongs 4.27 ± 0.11.
To IIWQPHSPCVRVYTCLSLIF belongs -1.67 ± 0.53; to IIYLIGLTRARHWCRLRYEL, -0.063 ± 0.3; to IKDLSRGCFSFYW, 1.37 ± 0.17.
The substance IKFVEPYSFLS gave an amyloid nucleation score of 1.32 ± 0.092.
To IKIIPPLKLLCVLGWHSRGA belongs 1.35 ± 0.19; to IKVYESYVRT, -0.812 ± 0.39.
As for ILCLF, the amyloid nucleation score was 0.909 ± 0.45.
Turning to ILCYMVGSRIMCVEHSGC, the amyloid nucleation score was 8.588 ± 0.064.
Then ILDSGVRYVFMRWLIGYCND, with -0.513 ± 0.33; and ILFVLWKLDRRPCSLLEYTQ, with 0.463 ± 0.56; and ILGSFEHSTQGKYSYWGMRG, with 4.51 ± 0.066.
To ILIMGMILNSMYV belongs 0.516 ± 0.64.
ILIVVMCFHSNNKSRDNRIY: the amyloid nucleation score was -1.46 ± 1.
To ILLNGRSFLRS belongs 0.174 ± 1.
Then ILLVSATHYSQLNKGRPNDL, with 1.43 ± 0.35.
To ILMRSYDFALGPNQCIIRAK belongs 4.95 ± 0.074.
In turn, ILQFKVGKGQGNAQLFKPII had an amyloid nucleation score of -0.935 ± 0.55.
To ILRDDGPNYRFQIRLL belongs 4.647 ± 0.038; to ILRTDMMINMDLLFGNVGNL, 3.38 ± 0.089.
